According to patent US12371726B2, “Process to produce mono-rhamnolipids” (Conopco, Inc., priority 2021, dated 2025):

B1: enzyme from A. terreus: recombinant α-L-rhamnosidase from Aspergillus terreus, prepared internally, secreted in P. pastoris; SEQ ID. 1 (protein, listed as Aspergillus terreus)
chain: MALSISQVAFEHHRTALGIGETQPRVSWRFDGNVSDWEQRAYEIEVKRAGHDADVFRSESSDSVLVPWPSSPLQSGEEATVRVRSFGSDGQHDTPWSDAVTVEPGLLTPDDWHDAVVIASDRPTEVDATHRPIQFRKEFSVDDSYVSARLYITALGLYEARINDQRVGDHVMAPGWQSYQYRHEYNTYDVTDLLKQGPNAIGVTVGEGWYSGRIGYDGGKRNIYGDTLGLLSLLVVTKSDGSKLYIPSDSSWKSSTGPIISSEIYDGEEYDSRLEQKGWSQVGFNSTGWLGTHELSFPKERLASPDGPPVRRVAEHKLANVFSSASGKTVLDFGQNLVGWLRIRVKGPKGQTIRFVHTEVMENGEVATRPLRQAKATDHFTLSGEGVQEWEPSFTYHGFRYVQVDGWPADTPLDENSVTAIVVHSDMERTGYFECSNPLISKLHENILWSMRGNFFSIPTDCPQRDERLGWTGDIHAFSRTANFIYDTAGFLRAWLKDARSEQLNHSYSLPYVIPNIHGNGETPTSIWGDAIVGVPWQLYESFGDKVMLEEQYGGAKDWVDKGIVRNDVGLWDRSTFQWADWLDPKAPADDPGDATTNKYLVSDAYLLHSTDMLANISTSLSKGEEASNYTEWHAKLTKEFQKAWITSNGTMANETQTGLALPLYFDLFPSAEQAQSAAKRLVNIIKQNDYKVGTGFAGTHLLGHTLSKYGESDAFYSMLRQTEVPSWLYQVVMNGTTTWERWDSMLPNGSINPGQMTSFNHYAVGSVGSWLHEVIGGLSPAEPGWRRINIEVVPGGDLQQASTKFLTPYGMASTKWWLDGQDQSCGGFDFHLVAEVPPNTRATVVLPGKGGEKVDVGSGVHEYHVRCVKL
B2: enzyme from A. niger: α-L-rhamnosidase from Aspergillus niger obtained from Megazyme LTD; SEQ ID. 2 (protein)
chain: MAPIALKILLFTSLIVPSISLSDQARNGHARTICEVKPGGSSEIDDVPAIVDALTTCGSGGRVIFSNNTYHINSVMNTTWLDDVEIDLQGTLLWSTNISYWLNHSLPVGYQNQSTAWILGGKDIVFEGHGYGTFNGSGQTWYRYVGSTSNYPRRPNQLTVSGAMGAVFKGLRFVQSQMWTMSIIHTSNSWFDSIYVNNLYDDGGSAQNTDGANTIYSKNITLTNWEVVNGDDSISTKANSTDITIANCTFTSGLGIAIGSIGQYNGAFETVERLKISNITYEKTTHAVYFKTWTGDQVGYPPNGGGGGLGYASDIVATNLKTNNLKGAPFTISQCTTFSGASGNCTNSKFQIRDLVFTDISGTTDSSDVASFQCSAVAPCEDITIENVSLRIAGNTTHAEEYLCGNVDGTVGFNCTGDVCVGSSATGGC
modifications: Aspergillus niger

Key:
[1] = system: α-L-rhamnosidase from A. terreus; experiment: Influence of rhamnose excess on rhamnosidase activity (product inhibition); assay type: biochemical, Aspergillus terreus; settings: pNPR substrate, rhamnose solutions 0.6-3 mM added 1:1:1, pH 6.5, 40° C., 30 minutes
Experimental: The analysis was performed only for α-l-rhamnosidase from A. terreus. The influence of rhamnose excess on enzyme activity was investigated using the same colorimetric method as described above (See FIG. 1). The pNPR substrate was first dissolved in DMSO, with concentration adjusted to 300 μM in 100 mM sodium phosphate buffer pH 6.5. Enzymes were diluted to concentration of 30 μg/mL in 100 mM sodium phosphate buffer pH 6.5. Following sequence of rhamnose concentrations were prepared in 100 mM sodium phosphate buffer pH 6.5: 0.6 mM, 1.2 mM, 1.8 mM, 2.4 mM, 3 mM. 240 μL of the total reaction mixture was prepared by adding the substrate solution, the enzyme solution and the rhamnose solution in 1:1:1 ratio. The activity assay was performed on 96-well Microtiter UV plate by Thermo Scientific (Waltham, MA USA). All reactions were done at pH 6.5 and in temperature 40° C. The changes in absorbance were monitored at 405 nm for 30 minutes in Microplate reader Varioskan® Flash. The relative activity of α-L-rhamnosidase from A. terreus was measured using pNPR substrate in the excess of rhamnose in the reaction mix. The analysis was performed in order to study product inhibition phenomenon.

[2] = Rhamnosidase activity assessment, colorimetric method using pNPR; assay type: biochemical; settings: 40° C.
Experimental: α-l-Rhamnosidase activity of enzyme from A. terreus and enzyme from A. niger was determined by a colorimetric method using p-nitrophenyl-α-l-rhamnopyranoside (pNPR) (See the chemical formula equation shown in FIG. 1). The pNPR substrate was first dissolved in DMSO, with concentration adjusted to 200 μM in 100 mM sodium phosphate buffer pH 6.5. Enzymes were diluted to concentration of 20 μg/mL in 100 mM sodium phosphate buffer pH 6.5. The reaction was prepared by mixing the substrate solution with enzyme solution in 1:1 ratio. The activity assay was performed on 96-well Microtiter UV plate by Thermo Scientific (Waltham, MA USA). All reactions were done at pH 6.5 and in temperature 40° C. The changes in absorbance were monitored at 405 nm for 60 minutes in Microplate reader Varioskan® Flash. The relative activity of α-L-rhamnosidase from A. terreus and α-L-rhamnosidase from A. niger were measured against the p-NPR. The reaction was monitored in time at 40° C. and pH 6.5 (See FIG. 3). The enzymes caused release of the product—4-nitrophenol. […] The 70% conversion of R2 is plenty sufficient for test purposes, therefore the enzyme with faster kinetics was used for further analysis.

[3] = β-D-glucosidase activity assessment, colorimetric method using pNPG; assay type: biochemical
Experimental: β-D-glucosidase activity of enzyme from A. terreus was determined by a colorimetric method using p-nitrophenyl-β-glucopyranoside (pNPG). The pNPG substrate was first dissolved in DMSO, with concentration adjusted to 200 μM in 100 mM sodium phosphate buffer pH 6.5. To analyse the substrate preference, the pNPG was mixed with pNPR at 1:1 ratio, then dissolved in DMSO, and concentration of such mixture was adjusted to 200 μM in 100 mM sodium phosphate buffer pH 6.5. As a control, pNPR, prepared as above, at concentration of 200 μM was used. Enzyme was diluted to concentration of 20 μg/mL in 100 mM sodium phosphate buffer pH 6.5. The reactions were prepared by mixing the substrate solution with enzyme solution in 1:1 ratio. The activity assay was performed on 96-well Microtiter UV plate by Thermo Scientific (Waltham, MA USA). […] The changes in relative absorbance values were monitored at 405 nm for about 30 minutes in Microplate reader Varioskan® Flash.
pNPG was used as a substrate to monitor β-D-glucosidase activity of enzyme from A. terreus, the pNPR was used as a substrate showing α-l-rhamnopyranoside activity, and mixture of both substrates was used to determine substrate preference (see FIG. 5). […] The absorbance signal was not detected for the reaction with pNPG, and the reaction kinetics observed for pNPR substrate was not impacted by presence of pNPG in the reaction with mixed substrates.

Molecule	effect of added rhamnose on substrate conversion rate [1]	converted substrate at plateau ([2]; pNPR 100 μM, pH 6.5)	time to reach about 70% of converted substrate ([2]; pNPR 100 μM, pH 6.5)	kinetic behaviour compared between the two enzymes ([2]; pNPR, pH 6.5)	substrate preference, pNPR versus pNPG and mixed substrates ([3]; pNPG mixed with pNPR 1:1, pH 6.5, 40° C.)	absorbance signal at 405 nm with pNPG (β-D-glucosidase activity) ([3]; pNPG, pH 6.5, 40° C., about 30 minutes)	substrate converted more than A. terreus enzyme after 60 min ([2]; pNPR 100 μM, pH 6.5, 60 min)
C[C@H](O)[C@H](O)[C@@H](O)[C@@H](O)C=O [rhamnose]	substrate conversion rate decreased	–	–	–	–	–	–
B1	–	70%	10 min	acting faster	recognized only pNPR as a substrate	not detected	–
B2	–	–	30 min	–	–	–	10%
